The results in this text go back to the DeepSol protein solubility set.

The nature of the data set: soluble on expression in E. coli; label from the status in PepcDB or PDB records.
As to “MSLAQVEQVIQVGHLLDVRTGNYQKNKAILVEAGRISAIVDADQAPKNVQVIDLSTHYVVPGLIDMHVHLTSDPQKHGYRGLVETPTREAIFGVSAAKATLKAGFTTVRNLGAAGFADVSLRDAIDDGEIQGPRMRVAANTICITGGHCDNNLLPHIYNSRSAGVANGPDEVRAKVRENIKYGADVIKFAATGGVLSKNTDVNASQYNFEEMKALIDEAHDRGRIVAAHAHGLQGIKRAIEAGVDSIEHGSFIDDDAIKLAKKHGTYLVMDVYVSDYILSEGEKAGILPESLAKEKKVGLLQRQNFQKAVKAGVKMAYGTDAGVYTHGLNGRQFAYMVQWGMTPLQAIQAATVNAGTLLNWKNEQGQQNVGVLEVGAFADLVAVPVDPLTQEGHHHHHH”, the “soluble on expression in E. coli” value is “soluble”.
“MSLARFVVLVIDSFGVGAMKDVTLVRPQDAGANTCGHILSQLPHLQLPTLETLGLINALGYAPGDMQPSDSATWGVAELQHEGGDTFMGHQEILGTRPLPPLRMPFRDVIDRVEQALVSAGWQVERRGDDLQFLWVNQAVAIGDNLEADLGQVYNITANLSVISFDDAIKIGRIVREQVQVGRVITFGGLLTDSQRILDAAESKEGRFIGINAPRSGAYDNGFQVVHMGYGVDEKVQVPQKLYEAGVPTVLVGKVADIVNNPYGVSWQNLVDSQRIMDITLNEFNTHPTAFICTNIQETDLAGHAEDVARYAERLQVVDRNLARLVEAMQPDDCLVVMADHGNDPTIGHSHHTREVVPVLVYQQGMIATQLGVRTTLSDVGATVCEFFRAPPPQNGRSFLSSLRFAGDTLEGHHHHHH”: the “soluble on expression in E. coli” value is “soluble”.
As to “MSLARLEPWAEKLTSDPATCRHLIEEFGSPVNVLHSGSMPRNINELVDAGIQMGVDTRIFFARKANKGLTFVDAVKDTGHGVDVASERELSQVLNRGVPGERIILSAAIKPDRLLALAIENGVIISVDSRDELDRISALVGDRVARVAPRVAPDPAVLPPTRFGERAADWGNRLTEVIPGVDIVGLHVHLHGYAAKDRALALQECCQLVDSLRECGHSPQFIDLGGGVPMSYIESEEDWIRYQSAKSATSAGYAESFTWKDDPLSNTYPFYQTPVRGNWLKDVLSKGVAQMLIDRGLRLHLEPGRSLLDGCGVTLAEVAFVKTRSDGLPLVGLAMNRTQCRTTSDDFLIDPLHITDGDVGEEIEAYLVGAYCIEDELILRRRIRFPRGVKPGDIIGIPNTAGYFMHILESASHQIPLAKNVVWPEGQLDDIDADEGHHHHHH”, the “soluble on expression in E. coli” value is given as “soluble”.
Consider “MSLATKFQESEQQGRKREFMNQRNAFFILELELTQEETDAFLPLYNELDTKRYELWKDVRQKRALMERKAELTDADMELIINKSLDNKIAEARLEKEYYYKFKRVLPMRKVMALKVAERKFARLFLKSSYDEGHHHHHH”, for which the “soluble on expression in E. coli” value was “soluble”.
For the sequence “MSLAYKPDDAAPFRSVTRQVLFSDLRLGCEWRYFEVAEGGYSTLERHQHVHATMIHRGRGQCLVGDVISDVAVGDLVFIPPMTWHQFRANAGDVLGFLCLVNADRDREGHHHHHH”, the “soluble on expression in E. coli” value is “not soluble”.
Regarding “MSLCELLGMSANVPTDIVFSFTGLMQRGGGTGPHRDGWGIAFYEGRGVRLFQDPLASVDSEVARLVQRFPIKSETVIGHIRQANVGKVGLSNTHPFIRELGGRYWTFAHNGQLADFQPKPGFYRPVGETDSEAAFCDLLNRVRRAFPEPVPVEVLLPVLISACDEYRKKGVFNALISDGDWLFTFCSSKLAYITRRAPFGPARLKDADLTVDFHAETTPDDVVTVIATEPLTDNENWTLQQSGEWVLWWGGEVLAKGEGGSHHHHHH”, the “soluble on expression in E. coli” value is “soluble”.
For “MSLDAHAQSYYRDCYRGAANMVRAMQKRANTLLSAGQTIADRQHKFIRSGRLRDKQPLTMTLIAQEAGLNKSTISRALSNCRIRLDSGIFPAEHFLARPLSDDTPDRTRDQVLQRLRLLIETENPRSPMSDQVLARQLGKARLSISRRTVAKYRQFLQIPGAYERKRNTEGHHHHHH”, the “soluble on expression in E. coli” value is “not soluble”.
The result for “MSLDEKLRTSGVQVIGDIAWGTHFCQFYRTQEELVNVVCPYLKAGLEGNELCIWALPRDFETKKEAEGPLRRTIPKLDIYLEKGQMEIISYKDRYAEKEIPDSKKALENLIKKADYALLNGYSGLRLVQDTSWLKNDWKNLTGYEEELDIAIENRRITALCTYSSGKFDTDETIYAALSHRFVLVKKEGNWEKVENPRLKKAEERVIQPSEEVETKTEEENENLKKLLEERTVELTEAYKSLKVNEKQFLQIRKMTHIGNWKWDILTGELHWSDEVYRIFGRDPERFKATCDAFLGSVHPDDREYLINSIKKDFDEQIRNIDYRIVLPDGEERTVRTRVEITFDEENQPVRAEGIVQDITELKRIEKALQEREEQYRAFFENSMDAVLFASPDGTIHAANKAACKTFGMTEKEIIRAGRNGIVDQSDPRLKPSLEERNSTGRFKGEINHKRKDGTIFPGEVSTALFKDKNGLMKIVIIIRDITERKKAEEVLRKSEEHYRMLFTNEGHHHHHH” reads “soluble”; that for “MSLDFEYVTGEEGLKKAIKRLENSPYLYLDTETTGDRIRLVQIGDEENTYVIDLYEIQDIEPLRKLINERGIVGHNLKFDLKYLYRYGIFPSATFDTMIASYLLGYERHSLNHIVSNLLGYSMDKSYQTSDWGASVLSDAQLKYAANDVIVLRELFPKMRDMLNELDAERGEELLKTRTAKIFDLKSPVAIVEMAFVREVAKLEINGFPVDVEELTNKLKAVERETQKRIQEFYIKYRVDPLSPKQLASLLTKKFKLNLPKTPKGNVSTDDKALTSYQDVEPVKLVLEIRKLKKIADKLKELKEHLKNGRVYPEFKQIGAVTGRMSSAHPNIQNIHRDMRGIFKAEEGNTFVISDFSQIELRIAAEYVKDPLMLDAFKKGKDMHRYTASVVLGKKEEEITKEERQLAKAINFGLIYGISAKGLAEYAKLGYGVEISLEEAQVLRERFFKNFKAFKEWHDRVKKELKEKGEVKGHTLLGRRFSANTFNDAVNYPIQGTGADLLKLAVLLFDANLQKKGIDAKLVNLVHDEIVVECEKEKAEEVKEILEKSMKTAGKIILKEVPVEVESVINERWTKEGHHHHHH”, “soluble”; that for “MSLDGIIPVVEKKDFLRWFLKEFTLKKRECSWLLNYLMSDDDLMENVHFVEEAERCPKALIMSTNDVHTVPFCFHKYQQVTMDAEKAFHDIRMNPEEAIYIQLHFSGAKHNPNYIAVLEDNPYVPENEDLIAKQKKLAEAFLERSVQSFEEKELLRRIDEALDARDKETFLTLSQQLQHLRQHSDEGHHHHHH”, “soluble”.
For the sequence “MSLDGPVVFICGKCKLPVGDSLSWDGSEDEQNQIRLKRVTDNVYVGKENRMYEVGKRSLCLIVDLLCQGCHSVLGMVYASTPKNMDHKRFTFCLNVADIDSYVLGSASQSLAAGGAGEQPVTLEYRSQVEEQLSQMKMLVMSMALKLEEIEIGRREGYEREGHHHHHH”, the “soluble on expression in E. coli” value was “not soluble”.
As to “MSLDIILDQPEQMLFALLRSALNSTKPVSEILFTDISPALWQACYRLACTQGVMALAWDGIQTLPACLQPPKALKLNWAMAVENYEKRYLRYCHTIAELSAFYKTHGITTVQLKGVGLSTYYPIPSHREGGDIDIFTYSADHSRKSDAEANRLADRLMEEKGIEVDFEHSEKHSMFYYKGIPIENHKTFINSETYRIAVKMDKLLQKLLQPVSAELDGKCSILIPSSTFNTVFLAFHAAQHYARGLALHHLCDWACLLNRYDLHIPEEVTDIRFRNMILAMTRLCNDYLGTSVPVYGGEELAEEILREIIRPPYTMSVPAKNKWGILVYKTKRMLHTHRACNSVLRISLCKWVGNSILLHLRSPHTIFQTEREGHHHHHH”, the “soluble on expression in E. coli” value was “soluble”.
Consider “MSLDIRGIGYLGFESPNIEAWRSYGPEVLGLAIAPSPEDEPDALYLKMDDRRYRLAFQPGPIDKLAYIGWECVNRIAFEKAVKKLQDAGIAVEMGSDDLKARRAVRDVVRFKDPVGYQYELFYGQKGEPDSFVPGRRHGGFNTYGRGFGHVVVMTPEYGPELDDFLINIMGFQWYGSGAGKGKTGFYRAGLNNLTSHDIGYGHAPGRMGIQHIGLLTGDLRDVGETWDIVNKRQIQVQMTLGQHTQDPHFSFYHFSPSGFAVEVIAETHPWPGDPFELNAERLSYWGHQLVGPILGTEGHHHHHH”, for which the “soluble on expression in E. coli” value is “not soluble”.
“MSLDIVLVGCKGFGKEHLRIYSKLGYDVSIVERDSNEAKRCSELFRVYKVYDNYEDALRSGSNIVDLVVPDGLHYEMGSLALKSKKHLLVEKPITPDIDSGISLIQQAEESKLKLMVAEQFYFDPSVNEAIRRINNGEIGKPHTVIVRHQSFRELKGWRNEKSMMGRGILIDEGTHYIDTLLNFGGRYRSLRSFVHRTWDFLGEDTAEAVFNFENGMHGLFFYSWNYPEYPLLPEFEIIGDAGSIYEDIGTKPTEPWDQRKRKTAYGDIIVNGKHIPVEPYDVIEREISGFLNAVEKDEPVPMPPDLALRDIITIDRIYKASSDEGHHHHHH”: the “soluble on expression in E. coli” value is on record as “soluble”.
The result for “MSLDLASKYFNDIDWRYVDHSSGLAPMQSFAFDDTFSESVGKDLSCNVVRTWIHQHTVILGIHDSRLPFLKDGIKYLTDEIGYNAIVRNSGGLGVVLDQGVLNISLIFKGQTETTIDEAFTVMYLLICKMFENEDVEIDTREIEHSYCPGKFDLSIDGKKFAGISQRRVRGGIAVQIYLCVEGSGSERAEMMRVFYEHALKGEVTKFKYPDIHPECMASLETLFEREIKVQDVMFQLLHAIKDLGGNLNMDPITEDEWTRYEGYFDKMIDRNEKMNRSIEADEGHHHHHH” reads “soluble”.
For “MSLDNHNPKKSTTPNNEFHKKIATTGKIINLPKQSIVPAVSISVYNDMKTIVLTPMEFQLSSIGFQFQNLIIDLPHSTISTNCITFYYHQDHILIDLIDQNYLFITLKIAIDRFILGGQQLTLDNFEEWGYISVPYSFELRSSPFLLKCLDNLNLIVSLKDGGLLHFKRDEELGEINVFNFQEQGTLIPFLGFFGSGKQKDVVLDGVSSNSIVDALQIGGSGVVITLSVNKVLKLWNLDGHQNLSSLTIASDDNTWLPTIPSKYLKSYDQEDGKTIITLFINTKSGDSSKSMFVFKSFELESSNEGHHHHHH”, the “soluble on expression in E. coli” value is “not soluble”.
For “MSLDRFVVTYRIVAEDEADAAARAASIALEDTVEIPRDVVPAGYVEDVVLGRVESVTARGGGVWTALIGYHVDAVGRELPQLLNVILGNASILRGVKAVDLAPDAALAERFPGARFGAAGVRRLTGRASGGFVCPVIKPQGSSAETLARLCYLSAVAGADIVKEDHGLANQDAAPFRERIGACAEAVGRANAERRDQGDTTQALYFANLCGPPHQLRDQAYYAKESGAHGILLIPGLHGFDAMFELAQDPDFDLPIMAHPSHLGPYVLSPDHGYGHGMLFGQLMRLAGADISVFPNHGGRFGFSVDECEEIVRACRDPEGLGPAILPSPGGGMSPERLPDMMAQYGEDCVYLLGGSLLRAGDRIGELIAEMRAALSGRDEGHHHHHH”, the “soluble on expression in E. coli” value is “soluble”.
The result for “MSLDSHRISVLHVDDEPGLGETTAEFLRQQSDGFSVETATSTSEGLKRLTEAPFDCIVSDYDMADMDGIEFLRAVRAEYPDLPFVLFTGKGSEEVASEAVSAGVSDYLQKRGGTERYTLLANRITNLVTQHRAEERLRTRVQQQEAVADLGQYALTGCGLDALFERAVESVAAGLNTEYSKVLEYRPADNKFLLRAGVGWQSGLVGEAAVGAGEESQAGYTLQTEEPVVVEDLRTESRFSGPSLLLDHGVVSGISVIIGTTTEPWGVLGAHTSERRPFTKDDITFVRGVANTLTNAIEREQLEGTLRQAEQRYKTLLENFPGGGVFLFDDDLRYLIARGEGLSAFGLTPADVEGKTLAEVFPPAVVERQKPKYRAALDGETQVWTQEYEGKQYRLSTLPVTGSSDKQLGMVVSMDITGLSASEGHHHHHH” reads “soluble”.
